{
  "source": "patent US20070087400A1",
  "about": "“Covalent tethering of functional groups to proteins and substrates therefor” (priority 2004, published 2007)",
  "key": {"[1]": {"test": "Precipitation of DhaA proteins with (NH4)2SO4", "format": "physicochemical", "details": "2 hours, 4° C.", "method": "Aliquots of the supernatant obtained from E. coli expressing DhaA (WT or one of the mutants) were treated with increasing concentrations of (NH4)2SO4. The proteins were exposed to each (NH4)2SO4 concentration for 2 hours (4° C.), pelleted by centrifugation, dialyzed overnight against buffer A, and resolved on SDS-PAGE."}, "[2]": {"test": "In vitro covalent alkyl-enzyme formation in crude lysates", "details": "25 μM substrate, 2 hours at room temperature"}, "[3]": {"test": "Covalent alkyl-enzyme formation in whole cells", "details": "15 μM substrate, 4° C., approximately 18 hours"}, "[4]": {"test": "Protein immobilization assay (substrate capture using immobilized DhaA)", "details": "biotin-PEG4-14-Cl substrate"}, "[5]": {"test": "DhaA capture using immobilized biotin chloroalkane substrates (ELISA-type)", "format": "binding", "quoted_text": "DhaA capture using immobilized chloroalkane substrates. […] Reactions between immobilized substrate and mutant DhaAs were performed using purified GST-DhaA-Flag fusions. Various concentrations of protein (100 μL; diluted in PBSTB) were incubated with immobilized substrate for various times at 25° C., and the reactions were stopped by emptying the plates and washing 4× with PBST. To detect bound DhaA, 100 μL anti-GST-HRP (Amersham) was added to each well at a 1:10,000 dilution (in PBSTB) and the plates incubated for 1 hour at 25° C."}, "[6]": {"test": "Thermostability analysis (residual activity by FP assay)", "format": "physicochemical", "details": "60 minute incubations", "method": "Thermostability analysis. The thermostability profiles of the DhaA mutants were determined by measuring the residual activity of the purified proteins following 15, 30 or 60 minute incubations at 4, 22, 30, 37, 42, 50 or 60° C. The FP assay was performed at room temperature (about 25° C.). […] For each clone, the labeling rate (slope of the linear range) was calculated for each condition. The rate observed following a 15 minute incubation at 4° C. was arbitrarily assigned as 100% activity. The residual activity (%) was calculated for each condition. To determine stability, for each incubation time, the % of residual activity was plotted against the incubation temperatures. To calculate half-life, for each incubation temperature, the % of residual activity was plotted against the incubation time. The time where 50% activity was lost was extrapolated from the graph."}, "[7]": {"test": "In vivo labeling of DhaA mutants expressed in CHO-K1 cells (cell-to-gel analysis)", "format": "cell-based", "details": "substrate concentration 5 μM", "method": "Cell-to-gel analysis. […] Proteins (2-10 μl/lane) were resolved on SDS-PAGE (4-20% gradient gels)."}, "[8]": {"test": "Hydrolysis of CCF2 (FRET-based substrate) by BlaZ", "format": "biochemical, Staphylococcus aureus PC1", "excerpt": "In CCF2, the cephalosporin core links a 7-hydroxycoumarin to a fluorescein. In the intact molecule, excitation of the coumarin (Eex-409 nm) results in FRET to the fluorescein, which emits green light (Eem-520 nm). Cleavage of CCF2 by β-lactamase results in spatial separation of the two dyes, disrupting FRET such that excitation of coumarin now gives rise to blue fluorescence (Eex-447 nm). CCF2 was purchased from Aurora Biosciences Corporation (San Diego, Calif.). Reduction of the FRET signal and an increase in blue fluorescence were measured on Fluorescence Multi-well Plate Reader CytoFluorI (PerSeptive Biosystems, Framingham, Mass., USA)."}, "[9]": {"test": "Hydrolysis of FAP by BlaZ (loss of absorbance at 344 nm)", "format": "biochemical, Staphylococcus aureus PC1", "details": "25° C., pH 6.8, up to 60 minutes", "method": "The chromogenic substrate 6-β-[(Furylacryloyl)amido]penicillanic acid triethylamine salt (FAP) was purchased from Calbiochem (La Jolla, Calif.). […] All assays were performed at 25° C. in 0.1 M potassium phosphate buffer at pH 6.8."}},
  "data": [
    {"molecule": "DhaA.H272Q: DhaA mutant with H272Q substitution (protein, UniProt P0A3G2 1-293, looked up, variant H272Q) Haloalkane dehalogenase: MSEIGTGFPFDPHYVEVLGERMHYVDVGPRDGTPVLFLHGNPTSSYLWRNIIPHVAPSHRCIAPDLIGMGKSDKPDLDYFFDDHVRYLDAFIEALGLEEVVLVIHDWGSALGFHWAKRNPERVKGIACMEFIRPIPTWDEWPEFARETFQAFRTADVGRELIIDQNAFIEGALPKCVVRPLTEVEMDHYREPFLKPVDREPLWRFPNELPIAGEPANIVALVEAYMNWLHQSPVPKLLFWGTPGVLIPPAEAARLAESLPNCKTVDIGPGLQYLQEDNPDLIGSEIARWLPAL", "values": [
      {"measurement": "(NH4)2SO4 concentration at which the protein was precipitated", "setting": "[1]", "value": 10, "unit": "%"}
    ]},
    {"molecule": "DhaA.WT: wild-type Rhodococcus rhodochrous dehalogenase (DhaA) (protein, UniProt P0A3G2 1-293, looked up) Haloalkane dehalogenase: MSEIGTGFPFDPHYVEVLGERMHYVDVGPRDGTPVLFLHGNPTSSYLWRNIIPHVAPSHRCIAPDLIGMGKSDKPDLDYFFDDHVRYLDAFIEALGLEEVVLVIHDWGSALGFHWAKRNPERVKGIACMEFIRPIPTWDEWPEFARETFQAFRTADVGRELIIDQNAFIEGALPKCVVRPLTEVEMDHYREPFLKPVDREPLWRFPNELPIAGEPANIVALVEAYMNWLHQSPVPKLLFWGTPGVLIPPAEAARLAESLPNCKTVDIGPGLHYLQEDNPDLIGSEIARWLPAL", "values": [
      {"measurement": "formation of alkyl-enzyme covalent intermediate in crude lysates", "setting": "[2]", "value": "No such product could be detected"}
    ]},
    {"molecule": "DhaA.H272F: DhaA mutant, catalytic His272 replaced with Phe (protein, UniProt P0A3G2 1-293, looked up, variant H272F) Haloalkane dehalogenase: MSEIGTGFPFDPHYVEVLGERMHYVDVGPRDGTPVLFLHGNPTSSYLWRNIIPHVAPSHRCIAPDLIGMGKSDKPDLDYFFDDHVRYLDAFIEALGLEEVVLVIHDWGSALGFHWAKRNPERVKGIACMEFIRPIPTWDEWPEFARETFQAFRTADVGRELIIDQNAFIEGALPKCVVRPLTEVEMDHYREPFLKPVDREPLWRFPNELPIAGEPANIVALVEAYMNWLHQSPVPKLLFWGTPGVLIPPAEAARLAESLPNCKTVDIGPGLFYLQEDNPDLIGSEIARWLPAL", "values": [
      {"measurement": "formation of alkyl-enzyme covalent intermediate in crude lysates", "setting": "[2]", "value": "very efficient at producing this intermediate"},
      {"measurement": "formation of covalent alkyl-enzyme intermediate in whole cells", "setting": "[3]", "value": "capable of generating a covalent alkyl-enzyme intermediate"}
    ]},
    {"molecule": "DhaA.H272F YL: DhaA.H272F based mutant with Y273L (protein, UniProt P0A3G2 1-293, looked up, variant H272F Y273L) Haloalkane dehalogenase: MSEIGTGFPFDPHYVEVLGERMHYVDVGPRDGTPVLFLHGNPTSSYLWRNIIPHVAPSHRCIAPDLIGMGKSDKPDLDYFFDDHVRYLDAFIEALGLEEVVLVIHDWGSALGFHWAKRNPERVKGIACMEFIRPIPTWDEWPEFARETFQAFRTADVGRELIIDQNAFIEGALPKCVVRPLTEVEMDHYREPFLKPVDREPLWRFPNELPIAGEPANIVALVEAYMNWLHQSPVPKLLFWGTPGVLIPPAEAARLAESLPNCKTVDIGPGLFLLQEDNPDLIGSEIARWLPAL", "values": [
      {"measurement": "activity compared to parental clones", "setting": "[4]", "value": "significantly improved"},
      {"measurement": "reaction with immobilized biotin-PEG4-14-Cl", "setting": "[5]", "value": "react most efficiently"}
    ]},
    {"molecule": "DhaA.H272A: DhaA mutant with H272A substitution (protein, UniProt P0A3G2 1-293, looked up, variant H272A) Haloalkane dehalogenase: MSEIGTGFPFDPHYVEVLGERMHYVDVGPRDGTPVLFLHGNPTSSYLWRNIIPHVAPSHRCIAPDLIGMGKSDKPDLDYFFDDHVRYLDAFIEALGLEEVVLVIHDWGSALGFHWAKRNPERVKGIACMEFIRPIPTWDEWPEFARETFQAFRTADVGRELIIDQNAFIEGALPKCVVRPLTEVEMDHYREPFLKPVDREPLWRFPNELPIAGEPANIVALVEAYMNWLHQSPVPKLLFWGTPGVLIPPAEAARLAESLPNCKTVDIGPGLAYLQEDNPDLIGSEIARWLPAL", "values": [
      {"measurement": "(NH4)2SO4 concentration at which the protein was precipitated", "setting": "[1]", "value": 10, "unit": "%"}
    ]},
    {"molecule": "DhaA.H272F YC: DhaA.H272F based mutant with Y273C (protein, UniProt P0A3G2 1-293, looked up, variant H272F Y273C) Haloalkane dehalogenase: MSEIGTGFPFDPHYVEVLGERMHYVDVGPRDGTPVLFLHGNPTSSYLWRNIIPHVAPSHRCIAPDLIGMGKSDKPDLDYFFDDHVRYLDAFIEALGLEEVVLVIHDWGSALGFHWAKRNPERVKGIACMEFIRPIPTWDEWPEFARETFQAFRTADVGRELIIDQNAFIEGALPKCVVRPLTEVEMDHYREPFLKPVDREPLWRFPNELPIAGEPANIVALVEAYMNWLHQSPVPKLLFWGTPGVLIPPAEAARLAESLPNCKTVDIGPGLFCLQEDNPDLIGSEIARWLPAL", "values": [
      {"measurement": "activity compared to parental clones", "setting": "[4]", "value": "significantly improved"}
    ]},
    {"molecule": "DhaA.H272F YM: DhaA.H272F based mutant with Y273M (protein, UniProt P0A3G2 1-293, looked up, variant H272F Y273M) Haloalkane dehalogenase: MSEIGTGFPFDPHYVEVLGERMHYVDVGPRDGTPVLFLHGNPTSSYLWRNIIPHVAPSHRCIAPDLIGMGKSDKPDLDYFFDDHVRYLDAFIEALGLEEVVLVIHDWGSALGFHWAKRNPERVKGIACMEFIRPIPTWDEWPEFARETFQAFRTADVGRELIIDQNAFIEGALPKCVVRPLTEVEMDHYREPFLKPVDREPLWRFPNELPIAGEPANIVALVEAYMNWLHQSPVPKLLFWGTPGVLIPPAEAARLAESLPNCKTVDIGPGLFMLQEDNPDLIGSEIARWLPAL", "values": [
      {"measurement": "activity compared to parental clones", "setting": "[4]", "value": "significantly improved"},
      {"measurement": "reaction with immobilized biotin-PEG4-14-Cl", "setting": "[5]", "value": "react most efficiently"}
    ]},
    {"molecule": "DhaA.H272G: DhaA mutant with H272G substitution (protein, UniProt P0A3G2 1-293, looked up, variant H272G) Haloalkane dehalogenase: MSEIGTGFPFDPHYVEVLGERMHYVDVGPRDGTPVLFLHGNPTSSYLWRNIIPHVAPSHRCIAPDLIGMGKSDKPDLDYFFDDHVRYLDAFIEALGLEEVVLVIHDWGSALGFHWAKRNPERVKGIACMEFIRPIPTWDEWPEFARETFQAFRTADVGRELIIDQNAFIEGALPKCVVRPLTEVEMDHYREPFLKPVDREPLWRFPNELPIAGEPANIVALVEAYMNWLHQSPVPKLLFWGTPGVLIPPAEAARLAESLPNCKTVDIGPGLGYLQEDNPDLIGSEIARWLPAL", "values": [
      {"measurement": "(NH4)2SO4 concentration at which the protein was precipitated", "setting": "[1]", "value": 10, "unit": "%"}
    ]},
    {"molecule": "DhaA.H272F H11: first generation DhaA.H272F mutant with K175M and C176G (protein, UniProt P0A3G2 1-293, looked up, variant K175M C176G H272F) Haloalkane dehalogenase: MSEIGTGFPFDPHYVEVLGERMHYVDVGPRDGTPVLFLHGNPTSSYLWRNIIPHVAPSHRCIAPDLIGMGKSDKPDLDYFFDDHVRYLDAFIEALGLEEVVLVIHDWGSALGFHWAKRNPERVKGIACMEFIRPIPTWDEWPEFARETFQAFRTADVGRELIIDQNAFIEGALPMGVVRPLTEVEMDHYREPFLKPVDREPLWRFPNELPIAGEPANIVALVEAYMNWLHQSPVPKLLFWGTPGVLIPPAEAARLAESLPNCKTVDIGPGLFYLQEDNPDLIGSEIARWLPAL", "values": [
      {"measurement": "retained significant labeling activity following incubation as high as", "setting": "[6]", "value": "≤ 50", "unit": "°C"},
      {"measurement": "in vivo labeling performance compared to parent DhaA.H272F", "setting": "[7]", "value": "superior performance characteristics"},
      {"measurement": "reaction with all biotin substrates tested", "setting": "[5]; biotin-14-Cl, biotin-X-14-Cl, biotin-PEG4-14-Cl", "value": "reacted poorly"}
    ]},
    {"molecule": "BlaZ.N170Q (protein, UniProt P00807 25-281, looked up, variant N170Q) Beta-lactamase: KELNDLEKKYNAHIGVYALDTKSGKEVKFNSDKRFAYASTSKAINSAILLEQVPYNKLNKKVHINKDDIVAYSPILEKYVGKDITLKALIEASMTYSDNTANNKIIKEIGGIKKVKQRLKELGDKVTNPVRYEIELNYYSPKSKKDTSTPAAFGKTLNKLIANGKLSKEQKKFLLDLMLNNKSGDTLIKDGVPKDYKVADKSGQAITYASRNDVAFVYPKGQSEPIVLVIFTNKDNKSDKPNDKLISETAKSVMKEF", "values": [
      {"measurement": "hydrolysis of CCF2", "setting": "[8]", "value": "reduced the ability"},
      {"measurement": "hydrolysis of FAP", "setting": "[9]", "value": "could not be detected"}
    ]}
  ]
}
